Assay results as given in US11732048B2, “Anti-axl antagonistic antibodies” (BERGEN TEKNOLOGIOVERFØRING AS, priority 2016, dated 2023).
Read-outs that look alike come from different tables or passages of the source.

T1: Tyro3 (rhTyro3/Dtk-Fc chimera) (Homo sapiens, UniProt Q06418)
T1 construct: Soluble recombinant antigens corresponding to the extracellular domains of members of the human TAM receptor family; Fc; purchased R&D Systems 859-DK
T1 sequence (Q06418 41-429 limits assumed): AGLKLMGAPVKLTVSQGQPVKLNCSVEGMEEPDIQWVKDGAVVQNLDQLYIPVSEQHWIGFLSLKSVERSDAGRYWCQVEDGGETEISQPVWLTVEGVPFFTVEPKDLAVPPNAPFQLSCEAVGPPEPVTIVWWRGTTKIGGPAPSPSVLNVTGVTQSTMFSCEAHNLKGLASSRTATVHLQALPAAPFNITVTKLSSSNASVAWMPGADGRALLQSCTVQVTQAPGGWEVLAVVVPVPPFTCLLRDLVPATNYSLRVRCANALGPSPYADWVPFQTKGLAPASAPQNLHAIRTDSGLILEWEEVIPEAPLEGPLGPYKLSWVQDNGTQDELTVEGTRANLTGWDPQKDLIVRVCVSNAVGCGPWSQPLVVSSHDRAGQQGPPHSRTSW


Tests used:
[1] = biological target: T2, human Axl (rhAxl-Fc chimera) (Homo sapiens, UniProt P30530); test: Biacore binding analysis on immobilised human Axl; conditions: 10 μg/mL in HBS-EP, 25° C.
T2 construct: Soluble recombinant antigens corresponding to the extracellular domains of members of the human TAM receptor family; Fc; purchased R&D Systems 154-AL
Method: (§1) All binding experiments were performed using Biacore 3000 instrument (GE Healthcare) at 25° C. Soluble recombinant antigens corresponding to the extracellular domains of members of the human TAM receptor family, Axl (rhAxl-Fc chimera; R&D Systems, Cat. no. 154-AL), Mer (rhMer-Fc chimera; R&D Systems, Cat. no. 891-MR) and Tyro3 (rhTyro3/Dtk-Fc chimera; R&D Systems, Cat. no. 859-DK) were immobilized on the surface of CM5 sensor chip using amine coupling at the surface density of 393.0, 303.6 and 364.0 resonance units (RU), respectively. The Biacore run was performed in an automatic mode using Binding analysis wizard. Samples containing MAb 10G5 at concentration 10 μg/mL in HBS-EP buffer (GE Healthcare) were injected over the surfaces with immobilized antigens at flow rate of 30 μL/min for 3 min (association) followed by 5 min dissociation.
(§2) The binding experiments were performed using Biacore 3000 instrument (GE Healthcare) at 25° C. The soluble recombinant antigens corresponding to human Axl (rhAxl-Fc chimera; R&D Systems, Cat. no. 154-AL), mouse Axl (rmAxl-Fc chimera; R&D Systems, R&D Systems; Cat. no. 854-AX) and human Tyro3 (rhTyro3/Dtk-Fc chimera; R&D Systems, Cat. no. 859-DK) were immobilized on the surface of CM5 sensor chip using amine coupling at the surface density of 1,308.0, 2,115.9 and 1,429.0 RU, respectively. The Biacore runs were performed in an automatic mode using Binding analysis wizard.
(§3) The sample containing MAb 10G5 or recombinant mouse (rm) Axl-ligand Gas6 (R&D Systems, Cat. no. 986-GS/CF) at concentration 10 μg/mL in HBS-EP buffer (GE Healthcare) was injected over the surfaces with immobilized antigens at flow rate of 30 μL/min for 3 min (association) followed by 5 min dissociation.
The sequence of Axl receptor from cynomolgus monkey (Macaca fascicularis; SEQ ID NO: 27) was retrieved from WO2009062690A1. Based on the sequence, recombinant extracellular domain of cyno-Axl was generated by transient expression in CHO cells as a fusion protein with human Fc. The recombinant cyno-Axl-Fc was purified to homogeneity using Protein A-Sepharose (GE Healthcare). The binding experiments were performed using Biacore 3000 instrument (GE Healthcare) at 25° C. The soluble recombinant antigens corresponding to human Axl (rhAxl-Fc chimera; R&D Systems, Cat. no. 154-AL) and cyno-Axl were immobilized on the surface of CM5 sensor chip using amine coupling at the surface density of 775 and 880 RU, respectively. The Biacore runs were performed in an automatic mode using Binding analysis wizard.
The sample containing MAb 10G5 or human Axl-specific MAb 5F11 (control) at concentration 10 μg/mL in HBS-EP buffer (GE Healthcare) was injected over the surfaces with immobilized antigens at flow rate of 30 μL/min for 3 min (association) followed by 5 min dissociation. […]

[2] = biological target: T3, mouse Axl (rmAxl-Fc chimera; Mm-Axl-Fc) (Mus musculus, UniProt Q00993); test: Biacore binding analysis on immobilised mouse Axl
T3 construct: The soluble recombinant antigens corresponding to human Axl (rhAxl-Fc chimera; R&D Systems, Cat. no; 154-AL), mouse Axl (rmAxl-Fc chimera; Fc; purchased R&D Systems 854-AX
T3 sequence (Q00993 19-445 limits assumed, change not shown): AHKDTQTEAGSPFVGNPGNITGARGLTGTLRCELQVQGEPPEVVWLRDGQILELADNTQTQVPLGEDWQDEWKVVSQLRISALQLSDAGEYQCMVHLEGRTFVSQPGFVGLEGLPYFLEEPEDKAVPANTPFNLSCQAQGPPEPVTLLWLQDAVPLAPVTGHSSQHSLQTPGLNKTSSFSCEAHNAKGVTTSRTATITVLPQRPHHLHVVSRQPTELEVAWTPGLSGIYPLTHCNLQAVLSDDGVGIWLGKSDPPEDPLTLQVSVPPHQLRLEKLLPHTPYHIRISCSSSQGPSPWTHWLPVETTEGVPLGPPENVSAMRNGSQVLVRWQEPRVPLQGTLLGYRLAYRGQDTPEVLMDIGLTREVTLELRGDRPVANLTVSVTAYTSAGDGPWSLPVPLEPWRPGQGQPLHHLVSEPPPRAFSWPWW
Method: as §2, §3
Sensor chip with immobilised Axl: Hs-Axl-Fc (638.2 RU), Mm-Axl-Fc (334.5 RU), Rhe-Axl-Fc (350.2 RU)
All tests were performed in parallel on Hs-Axl-Fc, Mm-Axl-Fc and Rhe-Axl-Fc surfaces.

[3] = biological target: T1, Tyro3 (rhTyro3/Dtk-Fc chimera); test: Biacore binding analysis on immobilised human Tyro3; conditions: 10 μg/mL in HBS-EP, 25° C.
Method: as §1, §2, §3

[4] = biological target: T2, human Axl (rhAxl-Fc chimera); test: Biacore kinetic analysis (surface plasmon resonance) on immobilised rhAxl-Fc; format: binding
Method: Kinetic analysis of murine MAb 10G5 interacting with rhAxl immobilized on the surface of the Biacore sensor chip. Overlay plots of sensograms for different antibody concentrations (0.3-166.7 nM for murine 10G5) are shown. The precise kinetic analysis was performed using BIA evaluation software and curve fitting according to 1:1 Langmuir binding model. […]
Affinity determination of anti-Axl antibody 10G5 was performed at 25° C. by surface plasmon resonance measurements using Biacore 3000 instrument (GE Healthcare). As a solid antigen-coated surface, a sensor chip CM5 with immobilized rhAxl-Fc chimera (R&D Systems, Cat. no. 154-AL) at density 190 RU was used.
For the kinetics measurements, different concentrations of anti-Axl antibodies (from 0.3 to 666.7 nM) in HBS-EP buffer (Biacore, Cat. no. BR-1001-88) were injected at flow rate of 30 μL/min with 3 min injection time followed by 5 min dissociation (buffer alone). After each cycle, the surface was regenerated by 30 sec injection of a regeneration solution (10 mM HCl, 1 M NaCl) at flow rate 50 μL/min.
The kinetic association (on-rate, kon) and dissociation (off-rate, koff) rates were calculated using BIAevaluation software and 1:1 Langmuir binding model. The equilibrium dissociation constant (KD) was calculated as the koff/kon ratio. The half-life (t1/2) of the formed antibody-antigen complexes was calculated as the ln 2/koff ratio. […]

[5] = rhAxl immobilized on Biacore sensor chip, 25° C., 1:1 Langmuir binding model

Molecule | Binding to human Axl [1] | Binding to human Axl ([1]; listed as murine Gas 6) | Binding to mouse Axl [2] | Binding to mouse Axl ([2]; listed as murine Gas 6) | Binding to recombinant human Tyro3 [3] | Binding to recombinant human Tyro3 ([3]; listed as murine Gas 6) | KD lower than that of the chimeric antibody ([4]; comparison referring to Table 3) | Off-rate (koff) [4, 5] [s⁻¹] | On-rate (kon) [4, 5] [M⁻¹ s⁻¹]
mouse Gas6: recombinant mouse Axl-ligand Gas6 (R&D Systems) (protein) QCTPNPCDKKGTHICQDLMGNFFCVCTDGWGGRLCDKDVNECVQKNGGCSQVCHNKPGSFQCACHSGFSLASDGQTCQDIDECTDSDTCGDARCKNLPGSYSCLCDEGYTYSSKEKTCQDVDECQQDRCEQTCVNSPGSYTCHCDGRGGLKLSPDMDTCEDILPCVPFSMAKSVKSLYLGRMFSGTPVIRLRFKRLQPTRLLAEFDFRTFDPEGVLFFAGGRSDSTWIVLGLRAGRLELQLRYNGVGRITSSGPTINHGMWQTISVEELERNLVIKVNKDAVMKIAVAGELFQLERGLYHLNLTVGGIPFKESELVQPINPRLDGCMRSWNWLNGEDSAIQETVKANTKMQCFSVTERGSFFPGNGFATYRLNYTRTSLDVGTETTWEVKVVARIRPATDTGVLLALVGDDDVVPISVALVDYHSTKKLKKQLVVLAVEDVALALMEIKVCDSQEHTVTVSLREGEATLEVDGTKGQSEVSTAQLQERLDTLKTHLQGSVHTYVGGLPEVSVISAPVTAFYRGCMTLEVNGKILDLDTASYKHSDITSHSCPPVEHATP | strong binding | binds strongly | strong binding | binds strongly | somewhat weaker binding | more weakly | – | – | –
H1L1: humanised 10G5 variant; presumably VH GH1 (SEQ ID NO: 1) with VL GL1 (SEQ ID NO: 3) (antibody, V domains shown, hu10G5 VH(GH1); hu10G5 VL(GL1)) VH: EVQLVQSGAGLVQPGGSVRLSCAASGYSFTDFYINWVRQAPGKGLEWIARIFPGGDNTYYNEKFKGRFTLSADTSSSTAYLQLNSLRAEDTAVYYCARRGLYYAMDYWGQGTLVTVSS VL: DIQMTQSPSSLSASVGDRVTITCRSSQSLVHSNGIPYLHWYQQKPGKAPKLLIYRVSNRFSGVPSRFSGSGSGTDFTLTISSLQPEDFATYYCSQGTHVPPTFGQGTKVEIK | – | – | – | – | – | – | at least 30% | 0.000161 | 1.54e+06
